Experimental findings from the DeepSol protein solubility set are described below.

This data set in a line: soluble on expression in E. coli; label from the status in PepcDB or PDB records.
Regarding “MGHHHHHHSHAPALGGQQSVSNKLLAWSGVLEWQEKPKPASVDANTKLTRSLPCQVYVNHGENLKTEQWPQKLIMQLIPQQLLTTLGPLFRNSRMVQFHFTNKDLESLKGLYRIMGNGFAGCVHFPHTAPCEVRVLMLLYSSKKKIFMGLIPYDQSGFVNGIRQVITNHKQVQQQKLEQQQRGMGGQQAPPGLGPILEDQARPSQNLLQLRPPQPQPQ”, the “soluble on expression in E. coli” value is listed as “not soluble”.
Next, “TFRLVIACPDGVGIVAKVSNFLATYNGWITEASHHSDNDNGWFFMRHEIRADSLPFDLDGFRQAFAPIAREFSMEWRITDSEVKKRVVLMASKESHCLADLLHRWHSGELDCEIPCVIANHDDLRSMVEWHGIPYFHVPVDPQDKQPAFDEVSRLIDEHGADCIVLARYMQILPPDLCRKYAHQVINIHHSFLPSFIGAKPYHQASKRGVKLIGATSHYVTEELDAGPIIEQDVVRVTHRDNVEDMVRLGKDVEKLVLARGLRYHLEDRVLVH”: “not soluble”.
Next, “MSLDIKTLKGFKDYLPKDSLIRIHIVRQIFSVLNSYNFDLIDTPVLEYSDLLLKKSGDETEKQIYRFKDNGGRDVSMRFDLTVPFARFVATNISALKLPFRRSQFGKVFRGENSQKGRYREFMQFDFDIVGEDTFRGDAEILSVVYYGLEEIFLNFIEGINKKFIIHYSHIGILNSFFEKLGLKEKSIFILRNIDKIDKIGIDKVKEALLLEIEKEAVDSILSLVSLQGTFKDKIQALKSILGDNESIKRVEDVFQHLSLLKIQDSFNLNLKISRGLDYYTGIVFESEVFGSNMGSVCSGGRYDNLVSSFSNSIQKISGVGGSFGVDRIKDIIDLEKFSYIKIFVTKARSKVLIVNLDSALQNYYYELATRFRNHDYSKVKNISCEVYFKNKNGKNIKEQIEYALSKEIRFLVFVGQEEYKENKMKVRDLTKKEELLLSFEESINLIKCNEKLEGHHHHHH”: “soluble”; “WLEPYMTSVASVKDLSKINLVEALNARLGWPLNQHLDEWLPEHYQLPTGTKKRIRYQHGHEPVLSVRMQEVFGESTSPTVALGRKRLVLELLSPAQRPLQVTSDLAAFWNGSYKDVQKEMKGRYPKHVWPDDPANHVATTKTKRQLNND”: “not soluble”; “MSLKTRYVLSCLLLGSALSVSAQKMAVKSNLLSAANGALNAGVEYAFGPKSTFDLSGSIRPWKRTEGYVNKYWLIQPEYRYWTCQKFNGSFWGAYLNGAQFNVGGKKMPFGLFPWLKEHRYAGWLTGGGISYGYHIMLNRHWNIEVSVGVGYEYIDYKKYKCPDVCAELLEKGHYHYFGPSKASLSIVYIFNEGHHHHHH”: “not soluble”.
As to “TRGHGLFRITLVERDGPVGAGIAYATREAEHLLNTRVHNMSAFPDRPDHFRQWLAAEPEGRFSTGDSFVPRGLYRRYLEEILAPWRAGAQLTCVGGECLRIEEVGRGVIAHFSDGSVRLADVAILATGHPRPDPAEDRLLQDPWRAADVPPDARVVLLGSGLTMIDKVLTLLANGHRGEI”, the “soluble on expression in E. coli” value is “not soluble”.
Then “ECGHISVSAPIVHLGDPITASCIIKQNCSHLDPEPQILWRLGAELQPGGRQQRLSDGTQESIITLPHLNHTQAFLSCSLNWGNSLQILDQVELRAGYPPAIPHNLSCLMNLTTSSLICQWEPGPETHLPTSFTLKSFKSRGNCQTQGDSILDCVPKDGQSHCSIPRKHLLLYQNMGIWVQAENALGTSMSPQLCLDPMDVVKLEPPMLRTMDPSPEAAPPQAGCLQLSWEPWQPGLHINQKCELRHKPQRGEASWALVGPLPLEALQYELCGLLPATAYTLQIRCIRWPLPGHWSDWSPSLELRTTERAAAPR”, with “soluble”; and “MAFELPALPYAKDALEPHISAETLDFHHGKHHNTYVVKLNGLIPGTEFENKSLEEIIKTSTGGIFNNAAQVWNHTFYWHCLSPNGGGEPTGAVAEAINAAFGSFADFKAKFTDSAINNFGSSWTWLVKKADGTLAITNTSNAATPLTEEGVTPLLTVDLWEHAYYIDYRNVRPDYMNGFWALVNWDFVAQNLAK”, with “not soluble”; and “MRIDILTLFPGMFSGVLNESILKKAQEKGAVDIRLIDFREFADNKHKTVDDYPYGGGAGMVLKPQPIFDAVEHVTAGSPGARIILLCPQGERYTQKKAEELAKETHLVLICGHYEGYDERIRQYLATDEISIGDYILTGGELGAMVIVDSVVRLLPGVLGNEASPVDDSFSSGLLEYPQYTRPADFRGMKVPDILLSGNHQLIAEWREKESLRRTFLRRPDLLDEYPLTDKQKQWLKEWEKERE”, with “not soluble”.
Take “MAHHHHHHMNSNPTTEMTTTKKEHSQDNMCEIMNKSDKNNNSSLSSRSEKSQSEEIKLCNSGIFNEDKEKQYNDFLKSYNAEYSVEQMKNFLKNGITENGVRILTTDKCSWLYDYYRITKTSDPCVKELTGNTTVDYYYYTTPFSTQIGNINLVMMHSQVNFGDGTCAPADRFFKMNSTTPEMIKEAKLKAKNFQYECMQYI”: the “soluble on expression in E. coli” value is reported as “not soluble”.
Regarding “MNRHSTTSGNLNTVFGYVDEETVSQGISASYVGSGKLVGNRLVRHTQTSLFSSANTW”, the “soluble on expression in E. coli” value is reported as “not soluble”.
Next, “MKEKKKEIEKLLARPDLTPEQMKNYGMEYAKIEEIENITNRIKETQEFIELLREEGENELEIEKYEKELDQLYQELLFLLSPEASDKAIVEIRPGTGGEEAALFARDLFRMYTRYAERKGWNLEVAEIHETDLGGIREVVFFVKGKNAYGILKYESGVHRVQRVPVTESGGRIHTSTATVAVLPEIEEKDIEIRPEDLKIETFRASGHGGQYVNKTESAVRITHLPTGIVVSCQNERSQYQNKQTALRILRARLYQLQKEQKEREISQKRKSQIGTGERSEKIRTYNFPQNRVTDHRINYTSYRLQEILDGDLDEIISKLIEHDIENNLEEVLGIGASVEEK”: “soluble”.
As for “MTEVAKGVATHQRLVALLTQENARYRVVNHEAVGKCEAVSEIRGTALGQGAKALVCKVKGNGVNQHVLAILAADQQADLSQLASHLGGLRASLASPAEVDMLTGCVFGAIPPFSFHPNLKLVADPLLFERFDEIAFNAGLLEKSVIMNTQDYLRIARPELAVFRRFQSSPTA”, the “soluble on expression in E. coli” value was “not soluble”.
Next, “MSLGPMRDLTWGQINFIHTTDTHGWIGGHLQEPQYSADWGDYISFTKHMRDQADKRGSDLLVIDTGDRIEGNGLYDASTPKGLFQYDIYAEADVDIMSTGNHELYKAYSADMEHNTTVPNYKNSYLASNLDYISFETGDRVPQAPRYKKFKTKNQGLNIVAFGFLFDFTGNANNTVVQPVEDTIKEDWFQEAIHEKPDLFVVIGHVGLRMEEFKVIYTAIRKQNWHIPIAFFGGHAHVRDTVQYDSKALAIASGRYFETIGWMSIDGIKKGGAKDVEAAASPTEGHHHHHH”: “soluble”; “MGHHHHHHSHGFYTIKEAERGVVTRFGKFSHLVEPGLNWKPTFIDEVKPVNVEAVRELAASGVMLTSDENVVRVEMNVQYRVTNPEKYLYSVTSPDDSLRQATDSALRGVIGKYTMDRILTEGRTVIRSDTQRELEETIRPYDMGITLLDVNFQAARPPEEVKAAFDDAIAARENEQQYIREAEA”: “soluble”; “MGNVMLSKRKSGSMADDTGEHPVCFNCTLRVDQTIHVKCFECPLRICILCFQCGAESPPHRRGHNYELVKPTSNPEAMSWTHEDEFELLKAAHKFKMGNWGEIAESIGRGRKDGHNCKDYFEKHFVRGWIGQFSIKSSSWDRIKYGMYINQTLDSVLQKNCLESTERMLLIRDAVRASGESWDENDPKLAIKVQQVLEQYVQKVIDGDIETKYERPKFLTNQYETELSPDDCDPDNERDMKSKRSVKQEINTDDSDNDNSPGPSSSCRKKGPPSPKRRKTTRVMRESSSDSDDDKSQASDKDTYHGMERETEEEDPPSAFETAQEFDTEDEEEEKKPKRGTASSSKRRKRRRMWVSKKDRRLHEFRKKMNQEVKELRSAYPRLLHESGVSKSETRPKMRRSDELKILGYNNEREELECEWFNEAEQLISRLTISATEPQKDQRLDMENDIKFARLRHYVRLLGIRKAKRNTVLEHDKINEFMKFYQEACYAAAKRPVSQQEIMDSRTEKEKLLAMTQQFLTRDEYRSLRASIERIDNVVERIEVLQDLQKNGETTLKNAPVERKSKKKMRKIDCEQKKKIATEWSKFKKWHTEGWE”: “not soluble”.
Take “GMKKIRFAAIGLAHNHIYDMCQQLIDAGAELAGVFESDSDNRAKFTSLFPSVPFAASAEQLITDASIDLIACAVIPCDRAELALRTLDAGKDFFTAKPPLTTLEQLDAVQRRVAETGRKFAVYFNERINVDSALFAGELVQRGEIGRVIQTMGVGPHRERGARPDWFYQKRQYGGILCDIGIHQIEQFLYFTGNTNARVVTSQTANYHHPHHPEFEDFGDAMLLGDNGATGYFRCDWFTPDGLSVWGDGRLTILGTEGYIEIRKYVDLTRGESNVVYLVNGKGEQRFTPAGSVERAFFPDFLRDCRERTENAMSQSHIFKATELSILAQQAANKIA”: the “soluble on expression in E. coli” value is “soluble”.
Next, “MGSDKIHHHHHHMGVKFTLMGTTAGLGVPAFHCNCIACREARADPFWARTRSGAVLETGKENILIDASPDLSKQLLRERIQSVDYLFVTHWHYDHFGGIGDLEYYVKLERKRPVALFLPPSAVDDFAKAYPFLEEVFVIEPWEFGKSYAFEGIELTVLPARHSIETGGILLAGAKRAAYFTDTSGLPAPTARQLQGVDTLICDATFNGANWFPHSHMNWQEAIALGESIRAQHTVLTHLAMHYSTPITAAQLQEKLKDYAQVSLAYDGMVLTI”: “not soluble”; “MGSDKIHHHHHHMNIQQLRYVVAIANSGTFREAAAKLFVSQPSLSVAVRDLETELGFQIFTRTTTGAVLTNQGMTFYENALEVVKSFDSFEKQFSQSEATEQEFSIASQHYDFLPPLITAFSKCNDNFSYFRIFESTTIRILDEVAQGNSEIGIIYINSQNKKGLLQRLDKLGLEFVELIPFKTHIYLGKDHPLASKTSLIMTDLEGLPTVRFTQDRDDYRYYSENFVEVLDSSVTYNVTDRATLNGILERTQAYATGSGFLDSRSVNGITVIPLEDHLDNQMIYIKRKDRNLSQMALKFVAVMEEYFKGFNS”: “not soluble”.
Next, “MSLTISNEDNMILMSRYPDKYFDLAIVDPPYGILNKTKRGGDYKFNMNEYSQWDIKPDQTYFNELFRVSKNQIIWGGNYFGELWLRSEYNKGFIIWDKNQPETLNNFSMAEMAWSSFDRPSKIFRFSVRKNRNKTHPTQKPVELYQWLLKMYAKQGDKILDTHLGSGTLAIACCIAQFDLTACEINSDYYQQSIEKIKNNLPEARISFGHPGYCIIEEGGSHHHHHH”: “soluble”.
In the case of “MPIILEKGQKIDLTKGQPKVAKLQVGLGWDPIGQSGGFLSSLFGSKPNVDCDASVVMLEGDRFLNKNDLVYFGNKLSTCGSIIHSGDNLTGEGAGDDETIFVELHKVPSRINRLVFVVNIYDCVNRRQDFGMIRNAYIRIQNPQTGEELARYNLSDNYAGKTTLIAGEMYRHGSEWKFSAVGEGTQDKNLSEIVSRYQ”, the “soluble on expression in E. coli” value is recorded as “not soluble”.
With “VQAVAVLKGDAGVSGVVKFEQASESEPTTVSYEIAGNSPNAERGFHICEFGDATNGCVSAGPHFNPFKKTHGAPTDEVRHVGDMGNVKTDENGVAKGSFKDSLIKLIGPTSVVGRSVVIHAGQDDLGKGDTEESLKTGNAGPRPACGVIGLTN”, the “soluble on expression in E. coli” value is on record as “soluble”.
